These results are taken from paper PMC4614863, “New Insights into the RNA-Binding and E3 Ubiquitin Ligase Activities of Roquins”.

Data set [1] deals with T1, RC3H2 stem-loop triple mutant (Homo sapiens, UniProt Q9HBD1 87-404, Q244A;Y247A;R248E).
T1 sequence: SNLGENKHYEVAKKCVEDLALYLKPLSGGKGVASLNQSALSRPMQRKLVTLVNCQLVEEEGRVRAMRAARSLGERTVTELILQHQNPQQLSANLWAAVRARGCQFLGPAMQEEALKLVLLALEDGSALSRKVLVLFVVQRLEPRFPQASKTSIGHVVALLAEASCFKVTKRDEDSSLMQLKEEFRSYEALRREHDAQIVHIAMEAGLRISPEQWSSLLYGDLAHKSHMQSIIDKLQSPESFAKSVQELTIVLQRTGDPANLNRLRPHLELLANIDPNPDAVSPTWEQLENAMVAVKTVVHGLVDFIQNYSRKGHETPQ
The experiment in a line: analytical SEC; 47.3 kDa complex; ITC: 20 mM Tris-HCl pH 8.0, 150 mM NaCl, 1 mM TCEP, 25 C; 200-500 uM RNA injected into 15-30 uM protein, one-site model. Conditions: protein: recombinant; tags: His6-tag, removed by TEV where applicable; mixture of hairpin and self-duplex in solution.

The target of data set [2] is T2, RC3H2 quaternary mutant (triple mutant + phosphomimic) (Homo sapiens, UniProt Q9HBD1 87-404, Q244A;Y247A;R248E;S323E).
T2 sequence: T1 sequence with S237E
In words: ITC; attributed to duplex form of Tnf23; ITC: 20 mM Tris-HCl pH 8.0, 150 mM NaCl, 1 mM TCEP, 25 C; 200-500 uM RNA injected into 15-30 uM protein, one-site model. Conditions: protein: recombinant; tags: His6-tag, removed by TEV where applicable; mixture of hairpin and self-duplex in solution. On the technique in general: In ITC the heat of successive injections is recorded.

The target of data set [3] is T3, RC3H2 RNA-binding region (HEPN+ROQ), wild type (Homo sapiens, UniProt Q9HBD1 87-404).
T3 sequence: T1 sequence with A158Q, A161Y, E162R
The experiment in a line: ITC; ITC: 20 mM Tris-HCl pH 8.0, 150 mM NaCl, 1 mM TCEP, 25 C; 200-500 uM RNA injected into 15-30 uM protein, one-site model. Conditions: protein: recombinant, tags: His6-tag (pET28-MHL N-terminal TEV-cleavable, or pNIC-CH C-terminal uncleavable), removed by TEV where applicable.

The target in data set [4] is T3, RC3H2 RNA-binding region (HEPN+ROQ), …. The experiment in a line: analytical SEC; ITC: 20 mM Tris-HCl pH 8.0, 150 mM NaCl, 1 mM TCEP, 25 C; 200-500 uM RNA injected into 15-30 uM protein, one-site model. Conditions: protein: recombinant.
Data set [5] shares this target. The experiment in a line: crystal structure; duplex contacts HEPN and ROQ; same ASU also has stem-loop RNA; 2.5 A; ITC: 20 mM Tris-HCl pH 8.0, 150 mM NaCl, 1 mM TCEP, 25 C; 200-500 uM RNA injected into 15-30 uM protein, one-site model. Conditions: protein: recombinant; tags: His6-tag (pET28-MHL N-terminal TEV-cleavable, or pNIC-CH C-terminal uncleavable); removed by TEV where applicable; antiparallel self-duplex, 2 copies of strand; 10 Watson-Crick bp plus central UGU with U7-U9 wobble pairs.

In data set [6] the target is T1, RC3H2 stem-loop triple mutant. In words: ITC; ITC: 20 mM Tris-HCl pH 8.0, 150 mM NaCl, 1 mM TCEP, 25 C; 200-500 uM RNA injected into 15-30 uM protein, one-site model. Conditions: protein: recombinant; tags: His6-tag, removed by TEV where applicable; hairpin; mainly stem-loop in solution.
[7] abbreviates: tags: His6-tag (pET28-MHL N-terminal TEV-cleavable, or pNIC-CH C-terminal uncleavable), removed by TEV where applicable, hairpin and/or self-duplex.

Positions count from the first letter of the chain named.

B1: Tnf23 CDE RNA, 23-nt (structured_RNA)
RNA: ACAUGUUUUCUGUGAAAACGGAG
For B1, the binding result in data set [1] is “binds”. Moreover, the Kd was 590 nM in data set [2]; 144 ± 50 nM in data set [3] (mixture of hairpin and self-duplex in solution).

B2: Roquin CDE RNA, 19-nt (structured_RNA)
RNA: AUAACUUCUGUGAAGUUGC
As for B2, in data set [4] (setting [7]), the binding result was “binds”.

B3: Roquin2 CDE RNA (called 27-nt; 26 nt printed) (structured_RNA)
RNA: UUAAUAACUUCUGUGAAGUUGUUUAC
Turning to B3, in data set [4] (setting [7]), the binding result is given as “binds”.

B4: Ier3 CDE RNA duplex (crystal) (dsRNA)
RNA 1: AUGUUCUGUGAACAC
RNA 2: AUGUUCUGUGAACAC
For the molecule B4, the binding result in data set [5] is reported as “binds”.

B5: dsICOS (called 24-bp; 23 nt printed) (dsRNA)
RNA 1: UCUUCAGUCUAGACAGUUCGCUU
RNA 2: AAGCGAACUGUCUAGACUGAAGA
Turning to B5, the binding result in data set [4] (tags: His6-tag (pET28-MHL N-terminal TEV-cleavable, or pNIC-CH C-terminal uncleavable; removed by TEV where applicable; ends not further stated)) was “binds”.

B6: Ier3 CDE RNA, 15-nt (structured_RNA)
RNA: AUGUUCUGUGAACAC
For B6, the binding result in data set [6] is “no binding”. The Kd in data set [3] (hairpin, mainly stem-loop in solution) turned out to be 356 ± 86 nM.

For orientation: Kd means the free concentration of one partner at which half of the binding sites on the other are occupied at equilibrium, for simple one-to-one binding.
